{"source": "paper PMC9436306", "about": "(Proceedings of the National Academy of Sciences of the …, 2022)", "key": {"[1]": {"biological_target": "T1, ALIX, full-length, Cy3-labeled (human, UniProt Q8WUM4 1-868, sulpho-Cy3 maleimide on native surface-exposed cysteines)", "T1 construct": "ALIX (PDCD6IP), ESCRT accessory protein with Bro1 domain, V domain and proline-rich domain; also called ALIX (Cy3); source: HEK293 cells, purified (StrepTactin Sepharose, gel filtration)", "T1 sequence (looked up)": "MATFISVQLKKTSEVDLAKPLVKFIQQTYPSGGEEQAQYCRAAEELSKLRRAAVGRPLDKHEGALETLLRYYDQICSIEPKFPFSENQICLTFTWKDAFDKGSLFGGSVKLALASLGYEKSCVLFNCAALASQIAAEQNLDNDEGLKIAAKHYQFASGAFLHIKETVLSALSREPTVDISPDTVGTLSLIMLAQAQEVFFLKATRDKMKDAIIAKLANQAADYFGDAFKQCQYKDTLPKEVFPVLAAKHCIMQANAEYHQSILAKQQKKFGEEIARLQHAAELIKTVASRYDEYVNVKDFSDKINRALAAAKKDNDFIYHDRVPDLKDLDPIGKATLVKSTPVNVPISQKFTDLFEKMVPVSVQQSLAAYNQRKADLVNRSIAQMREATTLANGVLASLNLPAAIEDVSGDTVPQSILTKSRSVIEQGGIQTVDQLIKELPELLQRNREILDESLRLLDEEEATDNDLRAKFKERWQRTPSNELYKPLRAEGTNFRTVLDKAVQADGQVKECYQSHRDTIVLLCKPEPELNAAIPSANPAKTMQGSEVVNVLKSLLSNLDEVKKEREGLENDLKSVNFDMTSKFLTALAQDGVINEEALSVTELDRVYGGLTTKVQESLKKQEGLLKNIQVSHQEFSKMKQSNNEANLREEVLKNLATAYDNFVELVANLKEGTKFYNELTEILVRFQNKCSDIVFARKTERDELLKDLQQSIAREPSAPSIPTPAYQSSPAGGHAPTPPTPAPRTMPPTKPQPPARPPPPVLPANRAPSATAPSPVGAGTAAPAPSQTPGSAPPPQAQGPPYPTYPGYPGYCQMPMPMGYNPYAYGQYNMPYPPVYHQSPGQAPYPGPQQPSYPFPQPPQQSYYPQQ", "assay": "recruitment to giant unilamellar vesicles (GUVs), confocal fluorescence microscopy; ALIX pathway: ALG-2 200 nM, ALIX 100 nM, with or without CHMP4B 10 nM, incubated 15 min in reaction buffer (25 mM Hepes pH 7.4, 125 mM NaCl, 0.2 mM TCEP), then added to 30% DOPS GUVs and imaged after 15 min at room temperature; read-out: puncta on the GUV periphery and their colocalization", "settings": "both partners purified"}, "[2]": {"biological_target": "T2, ESCRT-I complex (TSG101, VPS28, VPS37B, MVB12A), Cy3-labeled (human, UniProt Q99816 1-390; Q9UK41 1-221; Q9H9H4 1-285; Q96EY5 1-273)", "T2 construct": "TSG101, subunit of human ESCRT-I; VPS28, subunit of human ESCRT-I; VPS37B, subunit of human ESCRT-I; MVB12A, subunit of human ESCRT-I; Labeled with sulpho-Cy3 maleimide on native surface-exposed cysteines; It calls human ESCRT-I a soluble heterotetramer; also called ESCRT-I (Cy3); source: HEK293 cells, purified (StrepTactin Sepharose, gel filtration); copies: + + +", "T2 sequence (Q99816 whole entry, chain 1 of 4, other chains not shown)": "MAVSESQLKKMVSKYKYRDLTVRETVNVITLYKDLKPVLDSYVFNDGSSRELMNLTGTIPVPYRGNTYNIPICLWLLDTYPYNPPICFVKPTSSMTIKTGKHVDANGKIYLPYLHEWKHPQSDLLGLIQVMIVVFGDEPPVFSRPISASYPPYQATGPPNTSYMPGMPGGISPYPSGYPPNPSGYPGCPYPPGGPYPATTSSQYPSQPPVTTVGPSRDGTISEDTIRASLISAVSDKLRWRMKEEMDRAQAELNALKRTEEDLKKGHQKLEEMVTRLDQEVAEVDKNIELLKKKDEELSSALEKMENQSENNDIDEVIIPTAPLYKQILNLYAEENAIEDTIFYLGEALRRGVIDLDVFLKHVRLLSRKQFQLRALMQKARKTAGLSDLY", "T2 sequence (Q9UK41 whole entry, chain 2 of 4, other chains not shown)": "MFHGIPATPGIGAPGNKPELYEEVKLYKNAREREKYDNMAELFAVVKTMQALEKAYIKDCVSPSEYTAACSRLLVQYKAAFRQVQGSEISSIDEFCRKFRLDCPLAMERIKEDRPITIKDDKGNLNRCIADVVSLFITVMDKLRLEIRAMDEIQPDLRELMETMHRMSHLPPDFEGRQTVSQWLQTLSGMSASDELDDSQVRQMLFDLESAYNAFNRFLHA", "T2 sequence (Q9H9H4 whole entry, chain 3 of 4, other chains not shown)": "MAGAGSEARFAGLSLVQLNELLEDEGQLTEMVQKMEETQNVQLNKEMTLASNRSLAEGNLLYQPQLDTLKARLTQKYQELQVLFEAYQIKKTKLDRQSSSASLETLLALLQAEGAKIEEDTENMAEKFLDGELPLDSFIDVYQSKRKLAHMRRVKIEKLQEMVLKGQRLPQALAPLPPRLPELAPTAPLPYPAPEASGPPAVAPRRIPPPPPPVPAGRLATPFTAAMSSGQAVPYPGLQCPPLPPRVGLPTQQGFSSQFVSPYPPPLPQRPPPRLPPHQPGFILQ", "assay": "recruitment to giant unilamellar vesicles (GUVs), confocal fluorescence microscopy; ESCRT-I/II pathway: ALG-2 200 nM, ESCRT-I (Cy3) 50 nM, with or without ESCRT-II 200 nM and CHMP6 (Atto 488) 400 nM, incubated 15 min in reaction buffer, then 30% DOPS GUVs added and imaged after 15 min; ESCRT-I kept at a concentration at which it did not bind GUVs on its own", "settings": "both partners purified"}}}
{"binder": "ALG-2, fluorescently labeled (Atto 488) via A78C (natural protein, UniProt O75340 1-191, looked up, Atto 488 maleimide on the cysteine of A78C (25% labeling efficiency), also called ALG-2 (Atto 488); labeled ALG-2; source: E. coli BL21 (DE3), purified (Ni-NTA, gel filtration, anion exchange, gel filtration)) MAAYSYRPGPGAGPGPAAGAALPDQSFLWNVFQRVDKDRSGVISDTELQQALSNGTWTPFNPVTVRSIISMFDRENKCGVNFSEFTGVWKYITDWQNVFRTYDRDNSGMIDKNELKQALSGFGYRLSDQFHDILIRKFDRQGRGQIAFDDFIQGCIVLQRLTDIFRRYDTDQDGWIQVSYEQYLSMVFSIV", "values": [{"measurement": "binding result", "setting": "[1]", "value": "binds"}, {"measurement": "binding result", "setting": "[2]", "value": "binds"}]}
